The values below come from the DeepSol protein solubility set.

The nature of the data set: soluble on expression in E. coli; label from the status in PepcDB or PDB records.
For “MASKDKEINNTIDAIEDKNFKQVYKDSSYISKSDNGEVEMTERPIKIYNSLGVKDINIQDRKIKKVSKNKKRVDAQYKIKTNYGNIDRNVQFNFVKEDGMWKLDWDHSVIIPGMQKDQSIHIENLKSERGKILDRNNVELANTGTAYEIGIVPKNVSKKDYKAIAKELSISEDYIKQQMDQNWVQDDTFVPLKTVKKMDEYLSDFAKKFHLTTNETESRNYPLEKATSHLLGYVGPINSEELKQKEYKGYKDDAVIGKKGLEKLYDKKLQHEDGYRVTIVDDNSNTIAHTLIEKKKKDGKDIQLTIDAKVQKSIYNNMKNDYGSGTAIHPQTGELLALVSTPSYDVYPFMYGMSNEEYNKLTEDKKEPLLNKFQITTSPGSTQKILTAMIGLNNKTLDDKTSYKIDGKGWQKDKSWGGYNVTRYEVVNGNIDLKQAIESSDNIFFARVALELGSKKFEKGMKKLGVGEDIPSDYPFYNAQISNKNLDNEILLADSGYGQGEILINPVQILSIYSALENNGNINAPHLLKDTKNKVWKKNIISKENINLLTDGMQQVVNKTHKEDIYRSYANLIGKSGTAELKMKQGETGRQIGWFISYDKDNPNMMMAINVKDVQDKGMASYNAKISGKVYDELYENGNKKYDIDE”, the “soluble on expression in E. coli” value is listed as “soluble”.

As to “MTPPIISPESFEALRRMRAAEPTMVAERFKQRRKRELLGEDGKLFIVAADHPARGALAVGDNETAMANRYELLERMAIALSRPGVDGVLGTPDIIDDLAALGLLDDKIVVGSMNRGGLRGASFEMDDRYTGYNVSSMVDRGVDFAKTLVRINLSDAGTAPTLEATAHAVNEAAAAQLPIMLEPFMSNWVNGKVVNDLSTDAVIQSVAIAAGLGNDSSYTWMKLPVVEEMERVMESTTMPTLLLGGEGGNDPDATFASWEHALTLPGVRGLTVGRTLLYPQDGDVAAAVDTAARLVHTDIQQFTSQSILEHHHHHH”, the “soluble on expression in E. coli” value is “soluble”.

Take “MSDSKCDSQFYSVQVADSTFTVLKRYQQLKPIGSGAQGIVCAAFDTVLGINVAVKKLSRPFQNQTHAKRAYRELVLLKCVNHKNIISLLNVFTPQKTLEEFQDVYLVMELMDANLCQVIHMELDHERMSYLLYQMLCGIKHLHSAGIIHRDLKPSNIVVKSDCTLKILDFGLARTACTNFMMTPYVVTRYYRAPEVILGMGYKENVDIWSVGCIMGELVKGCVIFQGTDHIDQWNKVIEQLGTPSAEFMKKLQPTVRNYVENRPKYPGIKFEELFPDWIFPSESERDKIKTSQARDLLSKMLVIDPDKRISVDEALRHPYITVWYDPAEAEAPPPQIYDAQLEEREHAIEEWKELIYKEVMDWEERSKNGVVKDQPSDAAVSSNATPSQSSSINDISSMSTEQTLASDTDSSLDASTGPLEGCR”: the “soluble on expression in E. coli” value is recorded as “soluble”.

With “MRYAAYYAPRPDSALWRAGCEWLGYDAAGGAQLPRPDVEGVEAGELAGLTREAARYGWHATLKAPFALRPGVGEDALLLQTSMLARRFQPFALSLQVGWLGDFLALRPAGPCAELDELAAACSVSLEGLADRHAPLRPREGLDPRQQALYRRWGYPYVFEQFRFHLTLSDRLDRESAAAVLIERGARRHFAGLLQQVAVAGVTLFVEREQGGPFRYLAYCGFNGEVARHGR”, the “soluble on expression in E. coli” value was “not soluble”.

Take “MKIAILGAGCYRTHAAAGITNFMRACEVAKEVGKPEIALTHSSITYGAELLHLVPDVKEVIVSDPCFAEEPGLVVIDEFDPKEVMEAHLSGNPESIMPKIREVVKAKAKELPKPPKACIHLVHPEDVGLKVTSDDREAVEGADIVITWLPKGNKQPDIIKKFADAIPEGAIVTHAATIPTTKFAKIFKDLGREDLNITSYHPGCVPEMKGQVYIAEGYASEEAVNKLYEIGKIARGKAFKMPANLIGPVCDMCSAVTATVYAGLLAYRDAVTKILGAPADFAQMMADEALTQIHNLMKEKGIANMEEALDPAALLGTADSMCFGPLAEILPTALKVLEKHKVVEEEGKTKCEIMSQKE”: the “soluble on expression in E. coli” value was “soluble”.

As to “MSLKTQQSYQQRDDKGTLYLVATPIGNLEDVTFRAIRTLKEADQIAAEDTRQTKKLLNHFDIATKLVSYHEHNKETMGKRLIDDLIEGRTIALVSDAGMPAISDPGYELVVSAIKEGIAVIPIPGANAAVTALIASGLPTESFQFIGFLPRQKKQRRQALEETKPTKATLIFYESPHRLKDTLDDMLLILGNRHVSICRELTKTYEEFLRGTLEEAVHWAREATIKGEFCLIVEGNGEKVEPEEVWWESLSPVQHVEHYIALGFRSKEAIKQVATDRGVPKRDIYNIYHQEEGHHHHHH”, the “soluble on expression in E. coli” value is “soluble”.
